“Also recorded” adds a separate entry of the source.

In experiment [1] the target is T1, p75^NTR (Homo sapiens, UniProt P08138).
T1 sequence (P08138 29-427): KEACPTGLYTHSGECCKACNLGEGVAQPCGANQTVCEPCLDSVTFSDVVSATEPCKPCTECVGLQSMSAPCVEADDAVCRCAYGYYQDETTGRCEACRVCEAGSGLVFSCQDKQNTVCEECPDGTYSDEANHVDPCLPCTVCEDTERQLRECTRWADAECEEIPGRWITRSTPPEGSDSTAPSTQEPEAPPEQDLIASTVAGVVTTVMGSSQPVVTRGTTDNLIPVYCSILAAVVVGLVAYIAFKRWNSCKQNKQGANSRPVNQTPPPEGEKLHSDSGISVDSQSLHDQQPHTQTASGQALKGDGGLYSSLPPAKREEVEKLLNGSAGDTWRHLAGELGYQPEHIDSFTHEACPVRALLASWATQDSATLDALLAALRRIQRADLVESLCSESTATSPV
The experiment can be described thus: Th2 prone GvHD xenotransplantation model: NSG mice given human autologous T-cells and PDCs.
Description: Recipient mice from NSG mouse strain were pre-condition by irradiation with 3 Gy 24 hours before transplantation of human cells
For scoring of GvHD incidence and survival transplanted mice were monitored daily for weight, behaviour, skin, activity, fur and other parameters.
Human, autologous T-cells and PDCs were stimulated either with CpG B or not. Overnight co-cultured was done in the absence or presence of NGF. One day later human cells were transplanted into irradiated NSG mice by i.v. injection.

Experiment [2] has as its target T2, p75^NTR (Mus musculus, UniProt Q9Z0W1).
T2 construct: endogenous in cells; host or cells: murine plasmacytoid dendritic cells differentiated in vitro from bone marrow with Flt3-L (p75NTR+/+ wildtype; p75NTR-/- as control)
T2 sequence (Q9Z0W1 32-427): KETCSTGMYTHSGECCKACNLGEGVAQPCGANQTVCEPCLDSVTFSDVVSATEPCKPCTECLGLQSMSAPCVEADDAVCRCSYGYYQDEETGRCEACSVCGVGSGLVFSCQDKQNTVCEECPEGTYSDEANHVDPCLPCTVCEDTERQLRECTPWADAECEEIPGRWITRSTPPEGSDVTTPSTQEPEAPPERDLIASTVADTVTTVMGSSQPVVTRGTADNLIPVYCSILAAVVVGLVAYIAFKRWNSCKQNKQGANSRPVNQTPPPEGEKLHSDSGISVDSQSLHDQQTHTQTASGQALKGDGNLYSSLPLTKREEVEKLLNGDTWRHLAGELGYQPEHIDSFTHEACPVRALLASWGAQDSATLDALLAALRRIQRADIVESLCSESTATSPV
The experiment can be described thus: Proliferation and cytokine secretion of OT-II CD4+ or OT-I CD8+ T-cells co-cultured with murine PDCs. In kind it is cell-based. The source says:
Murine T-cells were isolated either from OT-II mouse strain expressing ovalbumin peptide specific T-cell receptors on CD4+ T-cells or from OT-I mouse strain expressing ovalbumin peptide specific T-cell receptors on CD8+CTLs using the CD8+ T-cell isolation kit (Miltenyi Biotec).

For experiment [3], the target named is T1, p75^NTR. The experiment can be described thus: IFNα secretion by ODN 2216 stimulated human PDC (ELISA). Particulars: ODN 2216 plus NGF 200 ng/ml vs ODN 2216 without NGF; 14 hours; p=0.0031. Set-up: nerve growth factor receptor p75^NTR, which is expressed by human and murine plasmacytoid dendritic cells (PDC); endogenous in cells; host or cells: primary human plasmacytoid dendritic cells (BDCA-4+ selection) from buffy coats or from peripheral blood of allergic donors. In kind it is cell-based. How it is done: Blood samples used for cell purification were obtained from two different sources: Fresh buffy coat samples, not older than 8 hours, served as the source of PDC used in oligodeoxynucleotides (ODN) and anti FcεRIα stimulation experiments. […]
Alike CD4^+ T helper cells isolation from peripheral blood mononuclear cells, total cell numbers were determined prior to purification of PDC. […] Magnetic cell separation procedure as described for first LS column was repeated for second MS column except that washing of the MS column was carried out with 500 μl PBS E/B. Purified PDC were counted and purity was assessed by flow cytometric analysis after staining the cells with monoclonal mouse anti human BDCA2-PE (Miltenyi Biotech) and monoclonal mouse anti human CD271-APC (Miltenyi Biotech). […]
For orientation: ELISA stands for enzyme-linked immunosorbent assay.

The mark [4] stands for this setting: co-culture with PDCs, NGF present.
Where [5] appears, read: co-culture with p75^NTR+/+ PDCs, NGF added, compared to p75^NTR−/− PDCs.

“NGF: Nerve growth factor, best characterized neurotrophin; natural p75^NTR agonist (R&D Systems)”: in the experiment with p75^NTR [1] (CpG B stimulated PDCs co-cultured in presence of NGF before transplantation), the “mortality (survival)” value was “significantly increased mortality”. In addition, the “severity of GvHD (cumulative GvHD incidence)” value with p75^NTR [1] (CpG B stimulated PDCs co-cultured with T-cells in presence of NGF before i.v. transplantation, 12 weeks) was “increased severity of GvHD”. Also, the “cumulative GvHD incidence or survival without CpG B” value in the experiment with p75^NTR [1] (PDCs cultured without TLR stimulating CpG B, data not shown) is listed as “no NGF dependent effect; also recorded: abolished the accelerating NGF effect”. In addition, in the experiment with p75^NTR [2] (setting [4]), the “cytokine secretion of CD8+ T-cells (CTLs) from OT-I strain” value was “secreted less cytokines” and the “proliferation of CD8+ T-cells (CTLs) from OT-I strain” value was “reduced proliferation”. In the experiment with p75^NTR [2] (setting [5]), the “cytokine secretion of CD4+ T-cells from OT-II strain” value is on record as “increased” and the “proliferation of CD4+ T-cells from OT-II strain” value is on record as “increased”. The IFNα secretion result in the experiment with p75^NTR [3] is “significant reduction”.
